Measured values from patent publication US20260265359A1 (Hoffmann-La Roche, published 2026).
Like-named read-outs stand apart in the source and are kept apart here.

T1: human Ang-1-Fc (human, UniProt Q15389 20-498, limits assumed)
T1 construct: not shown: Fc part
T1 sequence (looked up): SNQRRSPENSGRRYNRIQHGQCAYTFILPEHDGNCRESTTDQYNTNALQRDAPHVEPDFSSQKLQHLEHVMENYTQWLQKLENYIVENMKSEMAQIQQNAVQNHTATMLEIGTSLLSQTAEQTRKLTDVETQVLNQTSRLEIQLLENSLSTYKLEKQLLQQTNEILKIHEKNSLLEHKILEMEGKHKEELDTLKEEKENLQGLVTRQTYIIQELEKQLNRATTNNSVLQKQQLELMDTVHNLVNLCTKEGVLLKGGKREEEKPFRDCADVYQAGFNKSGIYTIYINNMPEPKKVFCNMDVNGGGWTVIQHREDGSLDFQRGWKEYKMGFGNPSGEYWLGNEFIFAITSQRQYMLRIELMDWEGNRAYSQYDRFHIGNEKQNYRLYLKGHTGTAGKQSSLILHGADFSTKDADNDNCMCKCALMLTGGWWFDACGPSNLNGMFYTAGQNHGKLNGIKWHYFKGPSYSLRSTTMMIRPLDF

T2: human IL-6R overexpressed on engineered CHO-S cells (human, UniProt P08887 20-468)
T2 construct: whole, on cells; also called IL-6R-expressing CHO-S cells
T2 sequence (looked up): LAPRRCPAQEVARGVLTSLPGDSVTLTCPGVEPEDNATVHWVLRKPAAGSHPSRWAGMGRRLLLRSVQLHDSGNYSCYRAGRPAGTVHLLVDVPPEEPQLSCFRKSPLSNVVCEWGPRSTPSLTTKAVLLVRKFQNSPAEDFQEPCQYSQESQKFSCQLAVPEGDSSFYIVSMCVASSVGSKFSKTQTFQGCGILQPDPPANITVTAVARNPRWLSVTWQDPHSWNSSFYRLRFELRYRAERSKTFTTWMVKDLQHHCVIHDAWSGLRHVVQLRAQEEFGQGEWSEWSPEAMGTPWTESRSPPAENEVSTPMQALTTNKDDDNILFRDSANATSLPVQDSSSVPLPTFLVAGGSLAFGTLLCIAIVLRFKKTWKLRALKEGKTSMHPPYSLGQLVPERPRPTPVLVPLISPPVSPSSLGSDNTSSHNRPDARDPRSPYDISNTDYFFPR

T3: recombinant human IL-6R (human, UniProt P08887 20-365, limits assumed)
T3 construct: Recombinant protein used in ELISA and as SPR analyte; also called hIL-6R
T3 sequence (looked up): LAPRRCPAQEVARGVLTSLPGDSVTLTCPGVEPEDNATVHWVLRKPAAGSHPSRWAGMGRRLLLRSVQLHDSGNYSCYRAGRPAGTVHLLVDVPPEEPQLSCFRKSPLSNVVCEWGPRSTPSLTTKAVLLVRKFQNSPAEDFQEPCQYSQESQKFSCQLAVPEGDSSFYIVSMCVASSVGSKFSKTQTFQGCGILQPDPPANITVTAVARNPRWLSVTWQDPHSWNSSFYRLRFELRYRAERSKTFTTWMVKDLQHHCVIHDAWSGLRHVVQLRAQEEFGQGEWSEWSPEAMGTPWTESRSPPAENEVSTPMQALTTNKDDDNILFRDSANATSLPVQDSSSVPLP


Legend:
[1] = target: T1, human Ang-1-Fc; experiment: FACS competition: soluble recombinant hTie-2 (positive control) pre-incubated with 2 µg/ml human Ang-1-Fc, then HEK-293 cells overexpressing human Tie-2; blocked: Ang-1-Fc binding to cell-bound Tie-2
[2] = target: T1, human Ang-1-Fc; experiment: FACS competition: soluble human Tie-2 ECD (positive control) pre-incubated with 2 µg/ml human Ang-1-Fc, then HEK-293 cells overexpressing human Tie-2; blocked: Ang-1-Fc binding to cell-bound Tie-2
[3] = target: T2, human IL-6R overexpressed on engineered …; experiment: FACS competition: antibody with biotinylated human IL-6 and CHO-S cells overexpressing human IL-6R; blocked: IL-6 binding to IL-6R
Text: (§1) Vobarilizumab is a single domain antibody (also termed nanobody) against human IL-6R.

[4] = target: T3, recombinant human IL-6R; experiment: SPR Biacore, 25 C; test antibody captured by anti-human IgG (Fc) on CM5 chip, target protein as analyte; 1:1 model
Procedure: (§2) SPR Biacore assay was performed at 25° C. with HBS-EP+ as a running buffer. The assay was performed by immobilization of the anti-human IgG (Fc) antibody onto the CM5 sensor chip surface and determined the level of ligand immobilization. […] Test antibodies were injected over the surface of Series S Sensor Chip CM5 as Capture. The analytes (target proteins) were diluted with running buffer into different concentrations and injected over the sensor surface as the association phase for affinity and kinetics measurements. The 1:1 binding model was used to measure the binding affinity and/or kinetics.

[5] = target: T3, recombinant human IL-6R; experiment: ELISA on plate-coated recombinant human IL-6R; anti-human IgG1-Fc-HRP, OD450
Procedure: (§3) After non-specific blocking using 1% BSA at 25° C. for 1 hour, a series of dilutions of test antibodies (“Abs”) were added into the coated wells and incubated at 25° C. for 1 hour. The bound Abs were detected using a secondary Ab (goat anti-human IgG1-Fc) conjugated with HRP followed by OD₄₅₀ reading.
(§4) The same ELISA procedure was performed with recombinant human IL-6R. […] Vobarilizumab is a single domain antibody against IL-6R. B781402 and B781405 are bispecific fusion antibodies that inhibit VEGF-A, B, PIGF and IL-6R.

[6] = target: T3, recombinant human IL-6R; experiment: as above; remark: listed apart in the source
Procedure: as §3, §4

[7] = target: T3, recombinant human IL-6R; experiment: SPR Biacore, 25 C; test antibody captured by anti-human IgG (Fc) on CM5 chip, target protein as analyte; 1:1 model; remark: listed apart in the source
Procedure: as §2

[8] = target: T2, human IL-6R overexpressed on engineered …; experiment: FACS competition: antibody with biotinylated human IL-6 and CHO-S cells overexpressing human IL-6R; blocked: IL-6 binding to IL-6R; remark: listed apart in the source
Text: as §1

IC50 [1] [nM]	IC50 [2] [nM]	IC50 [3] [nM]	Kd [4] [nM]	koff [4] [s⁻¹]	kon [4] [M⁻¹ s⁻¹]	EC50 [5] [nM]	EC50 [6] [nM]	Kd [7] [nM]	koff [7] [s⁻¹]	kon [7] [M⁻¹ s⁻¹]	IC50 [8] [nM]	Binder
53	42.9											hTie2 (receptor, also called human Tie-2 ECD; recombinant hTie-2) AMDLILINSLPLVSDAETSLTCIASGWRPHEPITIGRDFEALMNQHQDPLEVTQDVTREWAKKVVWKREKASKINGAYFCEGRVRGEAIRIRTMKMRQQASFLPATLTMTVDKGDNVNISFKKVLIKEEDAVIYKNGSFIHSVPRHEVPDILEVHLPHAQPQDAGVYSARYIGGNLFTSAFTRLIVRRCEAQKWGPECNHLCTACMNNGVCHEDTGECICPPGFMGRTCEKACELHTFGRTCKERCSGQEGCKSYVFCLPDPYGCSCATGWKGLQCNEACHPGFYGPDCKLRCSCNNGEMCDRFQGCLCSPGWQGLQCEREGIQRMTPKIVDLPDHIEVNSGKFNPICKASGWPLPTNEEMTLVKPDGTVLHPKDFNHTDHFSVAIFTIHRILPPDSGVWVCSVNTVAGMVEKPFNISVKVLPKPLNAPNVIDTGHNFAVINISSEPYFGDGPIKSKKLLYKPVNHYEAWQHIQVTNEIVTLNYLEPRTEYELCVQLVRRGEGGEGHPGPVRRFTTASIGLPPPRGLNLLPKSQTTLNLTWQPIFPSSEDDFYVEVERRSVQKSDQQNIKVPGNLTSVLLNNLHPREQYVVRARVNTKAQGEWSEDLTAWTLSDILPPQPENIKISNITHSSAVISWTILDGYSISSITIRYKVQGKNEDQHVDVKIKNATITQYQLKGLEPETAYQVDIFAENNIGSSNPAFSHELVTLPESQAPADLGGGKMLL
		0.756	1.4	0.000521	373000	0.028	0.05	1.1	0.00046	420000	1.82	Tocilizumab (antibody, V domains shown, mAb against human IL-6R used as comparator) VH: QVQLQESGPGLVRPSQTLSLTCTVSGYSITSDHAWSWVRQPPGRGLEWIGYISYSGITTYNPSLKSRVTMLRDTSKNQFSLRLSSVTAADTAVYYCARSLARTTAMDYWGQGSLVTVSS VL: DIQMTQSPSSLSASVGDRVTITCRASQDISSYLNWYQQKPGKAPKLLIYYTSRLHSGVPSRFSGSGSGTDFTFTISSLQPEDIATYYCQQGNTLPYTFGQGTKVEIKR
						1.36	1.39					Vobarilizumab (VHH) VHH 1: EVQLVESGGGLVQPGGSLRLSCAASGSVFKINVMAWYRQAPGKGRELVAGIISGGSTSYADSVKGRFTISRDNAKNTLYLQMNSLRPEDTAVYYCAFITTESDYDLGRRYWGQGTLVTVSS VHH 2: QIILTQSPAIMSASLGEEITLTCSATSSVTYVHWYQQKSGTSPKLLIYGTSNLASGVPSRFSGSGSGTFYSLTVSSVEAEDAADYYCHQWNSYPHTFGGGTKLEIK
